Data: the supplement of paper PMC10126150
± gives the standard deviation of the averaged measurements.

Tested on: ATP
Experiment: switch fluorescence ratio, 500 uM ATP over buffer (Cy3 cluster intensity, sum of 5 cycles each) (fold (ratio)); higher = stronger signal-on switching upon ATP binding; sequences stand for … in TCGTCGGCAGCGTCAGATGTGTATAAGAGACAGTTTTTTTTTTTTTTTTTTTTTTTTT…TC
Settings: aptamer strand: ATP DNA aptamer (quencher-CACCTGGGGGAGTATTGCGGAGGAAGG + anchor), 100 nM annealed; ATP concentration: 500 uM
Summary of the method: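 Per cluster, summed Cy3 intensity from the target cycles was divided by that from the buffer cycles to give the fluorescence ratio, then averaged per switch-domain sequence. Clusters outside 100-1000 RFU were excluded. The Cy3-labelled switching-strand clusters, on a modified Illumina MiSeq flow-cell, were annealed to 100 nM quencher-labelled ATP aptamer and imaged in selection buffer, then after 15 min with 500 uM ATP at 22 °C, for five cycles with NaOH stripping and re-annealing between them.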
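Further: ATP exposure 15 min at 22 °C before imaging.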

ATTAGACCCT
switch fluorescence ratio: 1.038 ± 0.005

ATTAGAGATT
switch fluorescence ratio: 1.01 ± 0.028

ATTAGAGCGT
switch fluorescence ratio: 1.013 ± 0.0045

ATTAGCGCCC
switch fluorescence ratio: 1.01 ± 0.032

ATTAGCTGGT
switch fluorescence ratio: 0.952 ± 0.017

ATTAGCTTAG
switch fluorescence ratio: 0.987 ± 0.017

ATTAGGGGAT
switch fluorescence ratio: 1.01 ± 0.018

ATTAGGGGTT
switch fluorescence ratio: 1 ± 0.037

ATTAGGGTTG
switch fluorescence ratio: 0.9823 ± 0.0019

ATTAGGTAAT
switch fluorescence ratio: 0.999 ± 0.011

ATTAGGTACG
switch fluorescence ratio: 1.02 ± 0.038

ATTAGGTGGG
switch fluorescence ratio: 1.05 ± 0.068

ATTAGTAGCA
switch fluorescence ratio: 1 ± 0.014

ATTAGTCCGA
switch fluorescence ratio: 0.9917 ± 0.0089

ATTATACTTC
switch fluorescence ratio: 1.04 ± 0.013

ATTATATTCT
switch fluorescence ratio: 1 ± 0.038

ATTATCTTGG
switch fluorescence ratio: 1.05 ± 0.064

ATTATGAATT
switch fluorescence ratio: 1.01 ± 0.021

ATTATGGAGG
switch fluorescence ratio: 0.968 ± 0.016

ATTATGGCGC
switch fluorescence ratio: 0.967 ± 0.0049

ATTATGGCTG
switch fluorescence ratio: 1.07 ± 0.011

ATTATGGTAT
switch fluorescence ratio: 1.02 ± 0.04

ATTATGGTGG
switch fluorescence ratio: 1.16 ± 0.26

ATTATGTTTG
switch fluorescence ratio: 1.002 ± 0.0097

ATTATTAATG
switch fluorescence ratio: 0.9917 ± 0.008

ATTATTAGAA
switch fluorescence ratio: 0.9912 ± 0.0034

ATTATTATTG
switch fluorescence ratio: 0.981 ± 0.041

ATTATTCAGT
switch fluorescence ratio: 0.997 ± 0.018

ATTATTCTTT
switch fluorescence ratio: 1.01 ± 0.061

ATTATTGGTG
switch fluorescence ratio: 1.018 ± 0.0046

ATTATTTATC
switch fluorescence ratio: 0.985 ± 0.088

ATTCAAGTT
switch fluorescence ratio: 0.999 ± 0.034

ATTCACACGC
switch fluorescence ratio: 1.06 ± 0.017

ATTCACTTAG
switch fluorescence ratio: 1.09 ± 0.011

ATTCAGACCT
switch fluorescence ratio: 1.39 ± 0.019

ATTCAGATCT
switch fluorescence ratio: 1 ± 0.034

ATTCAGGGCT
switch fluorescence ratio: 1.01 ± 0.013

ATTCAGGGGG
switch fluorescence ratio: 1.07 ± 0.028

ATTCAGTAAA
switch fluorescence ratio: 1 ± 0.022

ATTCAGTTGC
switch fluorescence ratio: 1.08 ± 0.072

ATTCATTCAG
switch fluorescence ratio: 0.9865 ± 0.0047

ATTCATTTTG
switch fluorescence ratio: 1.019 ± 0.0048

ATTCCAAGGA
switch fluorescence ratio: 0.9853 ± 0.0019

ATTCCAGACG
switch fluorescence ratio: 1.01 ± 0.024

ATTCCGGGGA
switch fluorescence ratio: 1.23 ± 0.29

ATTCCGGTGG
switch fluorescence ratio: 0.989 ± 0.052

ATTCCTCTGG
switch fluorescence ratio: 1.2 ± 0.018

ATTCGAAGGT
switch fluorescence ratio: 1.004 ± 0.0044

ATTCGAGAAG
switch fluorescence ratio: 0.997 ± 0.018

ATTCGAGTGT
switch fluorescence ratio: 0.984 ± 0.018

ATTCGCTTCT
switch fluorescence ratio: 1.02 ± 0.013

ATTCGGCGGA
switch fluorescence ratio: 1.03 ± 0.068

ATTCGGGGG
switch fluorescence ratio: 0.927 ± 0.064

ATTCGGGTTT
switch fluorescence ratio: 1.05 ± 0.066

ATTCGTAGTG
switch fluorescence ratio: 1.004 ± 0.0016

ATTCGTCATA
switch fluorescence ratio: 1.04 ± 0.075

ATTCGTTACT
switch fluorescence ratio: 1.03 ± 0.051

ATTCGTTTCT
switch fluorescence ratio: 0.97 ± 0.013

ATTCGTTTTC
switch fluorescence ratio: 1.02 ± 0.024

ATTCTATCGT
switch fluorescence ratio: 1.01 ± 0.015

ATTCTCATTG
switch fluorescence ratio: 0.982 ± 0.038

ATTCTGGTGC
switch fluorescence ratio: 1.12 ± 0.025

ATTCTTATTT
switch fluorescence ratio: 0.998 ± 0.028

ATTCTTTGG
switch fluorescence ratio: 0.9676 ± 0.0024

ATTGAAAGAG
switch fluorescence ratio: 1.21 ± 0.28

ATTGAAAGGC
switch fluorescence ratio: 1.29 ± 0.42

ATTGAAATTT
switch fluorescence ratio: 1.05 ± 0.093

ATTGAACGGG
switch fluorescence ratio: 1.02 ± 0.016

ATTGACTTTT
switch fluorescence ratio: 1 ± 0.025

ATTGAGATGC
switch fluorescence ratio: 0.938 ± 0.014

ATTGAGCCAG
switch fluorescence ratio: 1.03 ± 0.023

ATTGAGGAGG
switch fluorescence ratio: 1.02 ± 0.023

ATTGATACTA
switch fluorescence ratio: 1.03 ± 0.021

ATTGATATCC
switch fluorescence ratio: 0.987 ± 0.043

ATTGATGTTT
switch fluorescence ratio: 1.01 ± 0.024

ATTGATTGCG
switch fluorescence ratio: 0.989 ± 0.013

ATTGCAATGT
switch fluorescence ratio: 1.036 ± 0.0055

ATTGCCCGTC
switch fluorescence ratio: 0.992 ± 0.038

ATTGCGGTTT
switch fluorescence ratio: 0.991 ± 0.032

ATTGCTCTTT
switch fluorescence ratio: 1.0037 ± 0.00058

ATTGCTTTTT
switch fluorescence ratio: 0.9834 ± 0.0066

ATTGGAACGC
switch fluorescence ratio: 1.03 ± 0.012

ATTGGACTAC
switch fluorescence ratio: 1.07 ± 0.03

ATTGGAGTTA
switch fluorescence ratio: 0.999 ± 0.012

ATTGGATTCA
switch fluorescence ratio: 1.022 ± 0.0023

ATTGGCAGTG
switch fluorescence ratio: 1 ± 0.021

ATTGGCATCT
switch fluorescence ratio: 0.9925 ± 0.0079

ATTGGCCATC
switch fluorescence ratio: 0.997 ± 0.0048

ATTGGCCCAT
switch fluorescence ratio: 0.9642 ± 0.0017

ATTGGCCGCC
switch fluorescence ratio: 0.991 ± 0.042

ATTGGGAATA
switch fluorescence ratio: 0.986 ± 0.029

ATTGGGAGTA
switch fluorescence ratio: 0.988 ± 0.0099

ATTGGGATCC
switch fluorescence ratio: 1.02 ± 0.029

ATTGGGCAAT
switch fluorescence ratio: 1.054 ± 0.0023

ATTGGGCTGT
switch fluorescence ratio: 0.993 ± 0.016

ATTGGGTGTG
switch fluorescence ratio: 0.987 ± 0.027

ATTGGGTTGG
switch fluorescence ratio: 0.998 ± 0.019

ATTGGTGCGT
switch fluorescence ratio: 1.0357 ± 0.0007

ATTGGTGGGG
switch fluorescence ratio: 0.982 ± 0.033

ATTGTAAAGC
switch fluorescence ratio: 0.9935 ± 0.0083

ATTGTAGGAG
switch fluorescence ratio: 0.9966 ± 0.0058

ATTGTCGACT
switch fluorescence ratio: 0.9681 ± 0.0045

ATTGTCGGCT
switch fluorescence ratio: 1.05 ± 0.18

ATTGTGAAAT
switch fluorescence ratio: 0.999 ± 0.0025

ATTGTGCAGG
switch fluorescence ratio: 0.998 ± 0.0025

ATTGTGCCTG
switch fluorescence ratio: 1.083 ± 0.0093

ATTGTGCGGC
switch fluorescence ratio: 1.01 ± 0.027

ATTGTGGGGA
switch fluorescence ratio: 0.985 ± 0.048

ATTGTGTTCC
switch fluorescence ratio: 1.05 ± 0.0057

ATTGTTAATG
switch fluorescence ratio: 0.98 ± 0.046

ATTGTTATCT
switch fluorescence ratio: 1 ± 0.013

ATTGTTCCGT
switch fluorescence ratio: 1.02 ± 0.021

ATTGTTGGTG
switch fluorescence ratio: 0.986 ± 0.024

ATTGTTGGTT
switch fluorescence ratio: 0.974 ± 0.019

ATTGTTGTGT
switch fluorescence ratio: 0.9992 ± 0.0099

ATTGTTTCAG
switch fluorescence ratio: 0.976 ± 0.02

ATTGTTTGCG
switch fluorescence ratio: 0.966 ± 0.035

ATTGTTTGTC
switch fluorescence ratio: 0.996 ± 0.064

ATTTAAATTG
switch fluorescence ratio: 1.02 ± 0.052

ATTTAAGAAT
switch fluorescence ratio: 1.022 ± 0.0061

ATTTAAGGAC
switch fluorescence ratio: 1.04 ± 0.032

ATTTAATAAT
switch fluorescence ratio: 0.985 ± 0.018

ATTTACACGC
switch fluorescence ratio: 1.02 ± 0.02

ATTTACCAGG
switch fluorescence ratio: 1.18 ± 0.26

ATTTACTAGA
switch fluorescence ratio: 1.004 ± 0.0042

ATTTACTTCT
switch fluorescence ratio: 1.04 ± 0.015

ATTTAGACTT
switch fluorescence ratio: 1.039 ± 0.01

ATTTAGAGGT
switch fluorescence ratio: 0.965 ± 0.043

ATTTAGCCTA
switch fluorescence ratio: 0.9758 ± 0.0079

ATTTAGGTCA
switch fluorescence ratio: 0.983 ± 0.011

ATTTAGTACA
switch fluorescence ratio: 0.973 ± 0.011

ATTTAGTCGA
switch fluorescence ratio: 0.9519 ± 0.001

ATTTAGTTGT
switch fluorescence ratio: 1.03 ± 0.03

ATTTATACGC
switch fluorescence ratio: 1.06 ± 0.038

ATTTATACGG
switch fluorescence ratio: 1.02 ± 0.015

ATTTATATTG
switch fluorescence ratio: 0.989 ± 0.05

ATTTATGATA
switch fluorescence ratio: 0.99 ± 0.008

ATTTATGGTG
switch fluorescence ratio: 0.973 ± 0.031

ATTTATGTGG
switch fluorescence ratio: 0.998 ± 0.02

ATTTATGTTC
switch fluorescence ratio: 0.994 ± 0.033

ATTTATTTTA
switch fluorescence ratio: 1.01 ± 0.012

ATTTCAATTA
switch fluorescence ratio: 1.01 ± 0.065

ATTTCACAAT
switch fluorescence ratio: 0.9798 ± 0.0028

ATTTCAGTCT
switch fluorescence ratio: 0.977 ± 0.051

ATTTCATGG
switch fluorescence ratio: 0.97 ± 0.057

ATTTCCCGAT
switch fluorescence ratio: 0.979 ± 0.012

ATTTCTAGGA
switch fluorescence ratio: 0.987 ± 0.015

ATTTCTATCC
switch fluorescence ratio: 1.09 ± 0.12

ATTTCTGGGT
switch fluorescence ratio: 0.9885 ± 0.0082

ATTTCTTGG
switch fluorescence ratio: 0.958 ± 0.031

ATTTGAAGTT
switch fluorescence ratio: 0.975 ± 0.043

ATTTGACGGG
switch fluorescence ratio: 1.03 ± 0.047

ATTTGACTTT
switch fluorescence ratio: 1.04 ± 0.031

ATTTGAGTGC
switch fluorescence ratio: 0.966 ± 0.002

ATTTGAGTTA
switch fluorescence ratio: 1 ± 0.056

ATTTGCGGGC
switch fluorescence ratio: 1.07 ± 0.11

ATTTGGATGG
switch fluorescence ratio: 0.985 ± 0.023
